Results from article PMC3616122, “Crystal Structure of KLHL3 in Complex with Cullin3” (PLoS ONE, 2013).
Positions count from the first letter of the chain named. In names and notes the source's numbering stands. Values belong to the binder of their own block, whether it stands above or below them.

Legend:
[1] = target: the molecule itself; assay: SEC; Superdex S75 in buffer A (20 mM Tris pH 7.5, 150 mM NaCl, 1 mM TCEP, 10% v/v glycerol), elution monitored at 280 nm; proteins alone and an equimolar mixture
[2] = target: T1, Cul3^NTD, N-terminal domain of Cullin3 residues 20-381 with stabilizing mutations I342R/L346D (human, UniProt Q13618 20-381, I342R | L346D); assay: ITC; VP-ITC at 25°C in buffer A; KLHL3^BTB-BACK at 150 µM injected into Cul3^NTD at 15 µM; one-site binding model; a single titration for each protein; conditions: both partners purified
T1 construct: residues 26-379 are in the final model; also called Cul3 N-terminal domain; source: E. coli BL21 DE3 Codon+, purified (NiNTA, TEV cleavage, Superdex S75 SEC); not shown: thioredoxin, N-terminal, cleaved; His tag, N-terminal, cleaved
T1 sequence (Q13618 20-381 I342R/L346D): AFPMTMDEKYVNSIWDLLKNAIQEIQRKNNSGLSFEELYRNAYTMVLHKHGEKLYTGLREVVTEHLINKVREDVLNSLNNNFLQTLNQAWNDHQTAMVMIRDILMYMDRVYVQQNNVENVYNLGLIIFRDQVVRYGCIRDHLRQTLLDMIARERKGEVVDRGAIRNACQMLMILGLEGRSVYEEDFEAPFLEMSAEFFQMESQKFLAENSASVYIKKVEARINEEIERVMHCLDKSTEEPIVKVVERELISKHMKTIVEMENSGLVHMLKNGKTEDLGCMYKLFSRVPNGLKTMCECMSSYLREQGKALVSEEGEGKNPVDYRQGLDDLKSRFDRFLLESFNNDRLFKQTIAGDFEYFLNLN

[3] = target: the molecule itself; assay: crystal structure; KLHL3^BTB-BACK (SER version) and Cul3^NTD mixed 1:1 at 10 mg/ml total; hanging drop, 0.1 M sodium tartrate, 17% w/v PEG 3350, room temperature; 3.5 Å; one chain of each in the asymmetric unit, BTB homodimer by a crystallographic 2-fold
[4] = target: T1, Cul3^NTD, N-terminal domain of Cullin3 …; assay: as above; conditions: both partners purified

Kd [2]: 0.108 µM | stoichiometry N [2]: 1
B1: KLHL3^BTB-BACK, human KLHL3 residues 27-276, wild type (domain or fragment, UniProt Q9UH77 27-276, looked up)
chain: TVNPAHMGKAFKVMNELRSKQLLCDVMIVAEDVEIEAHRVVLAACSPYFCAMFTGDMSESKAKKIEIKDVDGQTLSKLIDYIYTAEIEVTEENVQVLLPAASLLQLMDVRQNCCDFLQSQLHPTNCLGIRAFADVHTCTDLLQQANAYAEQHFPEVMLGEEFLSLSLDQVCSLISSDKLTVSSEEKVFEAVISWINYEKETRLEHMAKLMEHVRLPLLPRDYLVQTVEEEALIKNNNTCKDFLIEAMKYH
notes: KLHL3, human, residues 27-276 (BTB and BACK domains), without the surface entropy reduction mutations; PDB 4HXI holds the same limits with K87A/K89A/K90A; Removal of the His tag is told only for Cul3^NTD; also called wild-type KLHL3^BTB-BACK; source: E. coli BL21 DE3 Codon+, purified (NiNTA, Superdex S75 SEC)
stoichiometry N [1]: 2

B2: KLHL3^BTB-BACK M78V (PHAII mutation) (domain or fragment, human, UniProt Q9UH77 27-276, looked up)
chain: B1 chain with M52V
notes: KLHL3, human, residues 27-276, PHAII patient mutation M78V introduced into the wild-type KLHL3^BTB-BACK plasmid; PDB 4HXI holds the same limits with K87A/K89A/K90A and without M78V; source: E. coli BL21 DE3 Codon+, purified (NiNTA, Superdex S75 SEC)
stoichiometry N [1]: 2

B3: KLHL3^BTB-BACK E85A (PHAII mutation) (domain or fragment, human, UniProt Q9UH77 27-276, looked up)
chain: B1 chain with E59A
notes: KLHL3, human, residues 27-276, PHAII patient mutation E85A introduced into the wild-type KLHL3^BTB-BACK plasmid; PDB 4HXI holds the same limits with K87A/K89A/K90A and without E85A; source: E. coli BL21 DE3 Codon+, purified (NiNTA, Superdex S75 SEC)
stoichiometry N [1]: 2

B4: KLHL3^BTB-BACK A77E (PHAII mutation) (domain or fragment, human, UniProt Q9UH77 27-276, looked up)
chain: B1 chain with A51E
notes: KLHL3, human, residues 27-276, PHAII patient mutation A77E introduced into the wild-type KLHL3^BTB-BACK plasmid; PDB 4HXI holds the same limits with K87A/K89A/K90A and without A77E; source: E. coli BL21 DE3 Codon+, purified (NiNTA, Superdex S75 SEC)
stoichiometry N [1]: 2

binding result [4]: binds
B5: KLHL3^BTB-BACK, human KLHL3 residues 27-276, surface entropy reduction version K87A/K89A/K90A used in crystallization (domain or fragment, UniProt Q9UH77 27-276, looked up)
chain: B1 chain with K61A, K63A, K64A
notes: KLHL3, human, residues 27-276 (BTB and BACK domains) with three lysines mutated to alanine for crystallization; residues 32-223 are in the final model; also called KLHL3^BTB-BACK (SER); source: E. coli BL21 DE3 Codon+, purified (NiNTA, Superdex S75 SEC)
binding result [3]: binds

Kd [2]: 4.1 µM
B6: KLHL3^BTB-BACK C164F (PHAII mutation) (domain or fragment, human, UniProt Q9UH77 27-276, looked up)
chain: B1 chain with C138F
notes: KLHL3, human, residues 27-276, PHAII patient mutation C164F introduced into the wild-type KLHL3^BTB-BACK plasmid; PDB 4HXI holds the same limits with K87A/K89A/K90A and without C164F; source: E. coli BL21 DE3 Codon+, purified (NiNTA, Superdex S75 SEC)
stoichiometry N [1]: 2
